Source: the supplement of paper PMC7877785
± gives the uncertainty stated by the source.

Test: self-splicing fitness, log relative to wild type (ln ratio); higher = more splicing; Tetrahymena group I intron in knt gene, E. coli kanamycin selection, DiMSum; sequences stand for … in CUCUCU…GGAGGGAAAAGUUAUCAGGCAUGCACCUGGUAGCUAGUCUUUAAACCAAUAGAUUGCAUCGGUUUAAAAGGCAAGACCGUCAAAUUGCGGGAAAGGGGUCAACAGCCGUUCAGUACCAAGUCUCAGGGGAAACUUUGAGAUGGCCUUGCAAAGGGUAUGGUAAUAAGCUGACGGACAUGGUCCUAACCACGCAGCCAAGUCCUAAGUCAACAGAUCUUCUGUUGAUAUGGAUGCAGUUCACAGACUAAAUGUCGGUCGGGGAAGAUGUAUUCUUCUCAUAAGAUAUAGUCGGACCUCUCCUUAAUGGGAGCUAGCGGAUGAAGUGAUGCAACACUGGAGCCGCUGGGAACUAAUUUGUAUGCGAAAGUAUAUUGAUUAGUUUUGGAGUACUCGUGGUCG
How it was run: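 A randomised library covering all eight P1ex-region intron nucleotides was built with the intron in the knt kanamycin-resistance gene on pET-22b(+) and held in E. coli BL21(DE3). Cells were grown overnight at 37°C or 30°C on LB agar, with or without 25 μg/mL kanamycin, plus 100 μg/mL carbenicillin, 50 μM IPTG and 0.2% rhamnose, and pooled colonies were amplicon-sequenced on an Illumina HiSeq 2500. DiMSum fitness is the error-weighted combination of wild-type-normalised replicate fold changes, kanamycin versus none.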

| Sequence | self-splicing fitness (ln) (30 °C) | self-splicing fitness (ln) (37 °C) |
| --- | --- | --- |
| AUAAAGCAAUAUUACGCCGU | 0.151 ± 0.11 | -0.694 ± 0.12 |
| AACUAGCAAUAUUACGUCGA | -0.769 ± 0.087 | -0.975 ± 0.09 |
| UACCAGCAAUAUUACGCUAU | -2.45 ± 0.11 | -0.409 ± 0.089 |
| UUAGAGCAAUAUUACGGCGC | -2.79 ± 0.24 | -0.914 ± 0.25 |
| UGGUAGCAAUAUUACGCGCG | 0.0906 ± 0.2 | -0.0153 ± 0.25 |
| AUGUAGCAAUAUUACGGUAU | -1.24 ± 0.093 | -0.0188 ± 0.11 |
| GCCUAGCAAUAUUACGAGUG | -2.5 ± 0.11 | -0.934 ± 0.099 |
| UGAUAGCAAUAUUACGCAAA | -2.25 ± 0.19 | -0.0467 ± 0.16 |
| GAAAAGCAAUAUUACGUUUU | -3.8 ± 0.18 | -2.4 ± 0.13 |
| CGCAAGCAAUAUUACGUUUG | -4.31 ± 0.26 | -2.8 ± 0.24 |
| UUCUAGCAAUAUUACGAUCC | – | -2.65 ± 0.38 |
| GGCAAGCAAUAUUACGAAAA | -0.934 ± 0.1 | -1.41 ± 0.15 |
| UCAUAGCAAUAUUACGGCAU | -3.91 ± 0.35 | -2.04 ± 0.23 |
| GUAAAGCAAUAUUACGGUUG | -2.91 ± 0.21 | -1.41 ± 0.2 |
| GGUCAGCAAUAUUACGAUGG | -1.34 ± 0.076 | -0.299 ± 0.1 |
| CUUAAGCAAUAUUACGUUAA | -3.97 ± 0.39 | -2.63 ± 0.32 |
| CCUAAGCAAUAUUACGUUCC | -3.6 ± 0.3 | -1.8 ± 0.34 |
| CUCCAGCAAUAUUACGCUAA | -3.28 ± 0.27 | -2.62 ± 0.42 |
| CGCUAGCAAUAUUACGUGCG | -3.74 ± 0.26 | -2.4 ± 0.22 |
| AAAGAGCAAUAUUACGCCAU | -3.65 ± 0.22 | -2.55 ± 0.29 |
| GUAUAGCAAUAUUACGUGAA | -3.69 ± 0.25 | -1.67 ± 0.17 |
| CUAGAGCAAUAUUACGCAAG | -1.8 ± 0.096 | -0.42 ± 0.11 |
| GCAAAGCAAUAUUACGAUCG | -1.52 ± 0.067 | -0.0765 ± 0.091 |
| UCUUAGCAAUAUUACGUCGU | -2.2 ± 0.12 | -1.92 ± 0.12 |
| AUUCAGCAAUAUUACGCUCA | -0.0142 ± 0.092 | -0.0382 ± 0.14 |
| GGGAAGCAAUAUUACGAUGC | 0.369 ± 0.12 | 0.306 ± 0.13 |

| Sequence | self-splicing fitness (ln) (30 °C) | self-splicing fitness (ln) (37 °C) |
| --- | --- | --- |
| UCCCAGCAAUAUUACGUUUC | -4.35 ± 0.34 | -2.4 ± 0.28 |
| AGAGAGCAAUAUUACGGACG | -2.64 ± 0.3 | -1.61 ± 0.44 |
| CUCAAGCAAUAUUACGACUU | -2.2 ± 0.18 | – |
| GAAUAGCAAUAUUACGUAGC | -3.4 ± 0.17 | -1.1 ± 0.12 |
| GGUUAGCAAUAUUACGGAAA | -1.53 ± 0.25 | -1.76 ± 0.22 |
| AAUUAGCAAUAUUACGCGGG | -2.73 ± 0.15 | -0.941 ± 0.14 |
| GGUUAGCAAUAUUACGAGGA | -3.3 ± 0.29 | -1.96 ± 0.24 |
| AUCAAGCAAUAUUACGGUUC | -3.53 ± 0.24 | -2.01 ± 0.13 |
| GCAUAGCAAUAUUACGCGUA | -1.43 ± 0.13 | -0.403 ± 0.12 |
| GAUCAGCAAUAUUACGAUUA | -0.622 ± 0.086 | 0.0655 ± 0.1 |
| AGGAAGCAAUAUUACGAAAG | -2.44 ± 0.23 | -1.19 ± 0.35 |
| AGGAAGCAAUAUUACGGGAC | -3.5 ± 0.46 | -1.67 ± 0.23 |
| UCCAAGCAAUAUUACGACUC | -3.4 ± 0.29 | -2.62 ± 0.24 |
| CUUGAGCAAUAUUACGCAGA | -1.11 ± 0.26 | -1.91 ± 0.3 |
| UAUAAGCAAUAUUACGUUGC | -3.02 ± 0.3 | – |
| ACCCAGCAAUAUUACGCGUG | -3.53 ± 0.17 | -1.9 ± 0.13 |
| CCGUAGCAAUAUUACGACGU | -0.571 ± 0.075 | -0.205 ± 0.088 |
| AGGUAGCAAUAUUACGGAGA | -3.57 ± 0.037 | -2.82 ± 0.043 |
| CUUAAGCAAUAUUACGUGCG | -1.34 ± 0.079 | -0.172 ± 0.1 |
| UCGUAGCAAUAUUACGUGGG | -3.54 ± 0.24 | -3.92 ± 0.28 |
| CGCUAGCAAUAUUACGCAAU | -2.44 ± 0.3 | -2.09 ± 0.36 |
| CAGCAGCAAUAUUACGUUAC | – | -2.34 ± 0.27 |
| AGGUAGCAAUAUUACGAUAA | -1.65 ± 0.018 | -0.626 ± 0.035 |
| CGAAAGCAAUAUUACGUUUG | -2.33 ± 0.12 | -1.74 ± 0.14 |
| UUUAAGCAAUAUUACGUGUU | -3.32 ± 0.2 | -2.57 ± 0.22 |
| AUCAAGCAAUAUUACGCUAC | – | -0.41 ± 0.33 |

| Sequence | self-splicing fitness (ln) (30 °C) | self-splicing fitness (ln) (37 °C) |
| --- | --- | --- |
| CGCGAGCAAUAUUACGUGAU | -2.82 ± 0.23 | -3.59 ± 0.37 |
| GCACAGCAAUAUUACGCUAC | -3.81 ± 0.37 | -2.29 ± 0.25 |
| CGACAGCAAUAUUACGGGAA | -3.44 ± 0.17 | -1.92 ± 0.099 |
| CUCUAGCAAUAUUACGAUAA | -3.29 ± 0.27 | -2 ± 0.24 |
| GCAAAGCAAUAUUACGCCGU | -2.85 ± 0.21 | -2.46 ± 0.23 |
| AAUUAGCAAUAUUACGCCGC | -2.94 ± 0.36 | -1.66 ± 0.24 |
| GAUGAGCAAUAUUACGAUCG | -1.9 ± 0.35 | -2.32 ± 0.24 |
| AGUUAGCAAUAUUACGCACG | -1.42 ± 0.19 | 0.196 ± 0.22 |
| UAUCAGCAAUAUUACGAUCU | -0.554 ± 0.1 | -0.0299 ± 0.098 |
| UGCUAGCAAUAUUACGUUCA | -0.255 ± 0.076 | 0.0245 ± 0.12 |
| ACUCAGCAAUAUUACGCCCA | -1.42 ± 0.13 | -0.482 ± 0.15 |
| CUACAGCAAUAUUACGAAAC | -3.35 ± 0.26 | -2.37 ± 0.39 |
| GUAUAGCAAUAUUACGGUGU | -3.29 ± 0.15 | -1.38 ± 0.11 |
| ACCGAGCAAUAUUACGUACA | -2.64 ± 0.27 | -2.04 ± 0.27 |
| CCAUAGCAAUAUUACGUCUU | -3.12 ± 0.15 | -2.56 ± 0.17 |
| AGACAGCAAUAUUACGGUAG | -3.97 ± 0.22 | -0.604 ± 0.092 |
| AAGCAGCAAUAUUACGCUCU | -1.55 ± 0.098 | -0.549 ± 0.11 |
| CCCAAGCAAUAUUACGUGAU | -3.67 ± 0.13 | -2.45 ± 0.16 |
| UGAUAGCAAUAUUACGAUGG | -1.56 ± 0.11 | -1.72 ± 0.16 |
| AAGUAGCAAUAUUACGGGUG | -3.43 ± 0.17 | -1.14 ± 0.12 |
| ACACAGCAAUAUUACGCAGA | -2.48 ± 0.16 | -1.75 ± 0.12 |
| AAGCAGCAAUAUUACGCCUA | 0.0257 ± 0.11 | -0.183 ± 0.13 |
| CUGCAGCAAUAUUACGUUUU | -3.97 ± 0.19 | -3.27 ± 0.21 |
| UCAAAGCAAUAUUACGGUCA | -0.88 ± 0.1 | -0.6 ± 0.1 |
